Data on one substance can be found in paper PMC10715038.

Like-named read-outs stand apart in the source and are kept apart here.

Common to all, as to assay: SPR
The target of assay [1] is Horse ACE2-huFc (soluble horse ACE2 ectodomain, human IgG1 Fc fusion) (horse (Equus caballus)) (UniProt F6V9L3).
The target in assay [2] is Pangolin ACE2-huFc (soluble pangolin ACE2 ectodomain, human IgG1 Fc fusion) (pangolin (Manis javanica)).
Assay [3] deals with Horse ACE2-huFc (soluble horse ACE2 ectodomain, human IgG1 Fc fusion) (horse (Equus caballus)) (UniProt F6V9L3). This is another data set of the same source.

As to “SARS-CoV-2 WHU01 Spike RBD, monomeric (from UniProt P0DTC2) (domain or fragment)”, the Kd (usually the concentration at which binding is half-saturated) in assay [1] is 0.0898 µM; in assay [2] it was 0.0671 µM; in assay [3] it was 0.0674 µM.
